Holding throughout (assay): SPR steady state; FP: PBS + 0.05% Tween20, 5 nM DNA, 1 h, room temperature; SPR: Biacore S200, SA chip, protein 0.1-4500 nM, running buffer not given in material; errors are SD
Holding throughout (conditions): protein: recombinant; tags: N-terminal His8-linker-His8-TEV, cleaved; label: 3' biotin; hairpin, TTTT loop
Background: Surface plasmon resonance follows binding to a sensor surface in real time, without labels.

One data set addresses T1, IRF4 DBD S114N (Homo sapiens, UniProt Q15306 20-132, S114N).
T1 sequence: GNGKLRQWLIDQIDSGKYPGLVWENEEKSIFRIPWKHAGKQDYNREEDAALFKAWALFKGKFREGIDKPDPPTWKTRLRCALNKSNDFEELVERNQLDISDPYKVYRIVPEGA

In a further data set the target is T2, IRF4 DBD K59R (Homo sapiens, UniProt Q15306 20-132, K59R).
T2 sequence: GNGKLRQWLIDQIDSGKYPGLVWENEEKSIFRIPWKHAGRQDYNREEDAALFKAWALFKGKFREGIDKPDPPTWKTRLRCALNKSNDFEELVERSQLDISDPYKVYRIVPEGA

The target of another data set is T3, IRF4 DBD C99R (Homo sapiens, UniProt Q15306 20-132, C99R).
T3 sequence: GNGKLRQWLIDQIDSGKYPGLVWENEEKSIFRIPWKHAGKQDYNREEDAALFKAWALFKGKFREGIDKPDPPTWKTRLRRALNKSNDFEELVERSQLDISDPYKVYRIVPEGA

Another data set addresses T4, IRF4 DBD L70V (Homo sapiens, UniProt Q15306 20-132, L70V).
T4 sequence: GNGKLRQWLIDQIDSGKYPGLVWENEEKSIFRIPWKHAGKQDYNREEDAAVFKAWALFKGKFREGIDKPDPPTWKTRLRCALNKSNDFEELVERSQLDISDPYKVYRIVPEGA

The next data set has as its target T5, IRF4 DBD T95A (Homo sapiens, UniProt Q15306 20-132, T95A).
T5 sequence: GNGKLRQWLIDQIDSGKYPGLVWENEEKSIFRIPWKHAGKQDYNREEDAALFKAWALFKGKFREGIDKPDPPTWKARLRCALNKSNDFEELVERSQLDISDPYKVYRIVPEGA

For a further data set, the target named is T6, IRF4 DBD D117A (Homo sapiens, UniProt Q15306 20-132, D117A).
T6 sequence: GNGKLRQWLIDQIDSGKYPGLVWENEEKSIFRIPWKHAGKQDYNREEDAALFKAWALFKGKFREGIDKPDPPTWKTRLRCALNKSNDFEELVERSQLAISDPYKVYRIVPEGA

What is called Kd is the concentration at which binding is half-saturated. As for CTTGGTTTCACTTCCTGCGTTTTCGCAGGAAGTGAAACCAAG (structured_DNA) [IRE hairpin (biotin)], the dissociation constant Kd in the data set with IRF4 DBD S114N worked out at 0.291 ± 0.079 µM; with IRF4 DBD K59R, 0.275 ± 0.093 µM; with IRF4 DBD C99R, 0.546 ± 0.174 µM; with IRF4 DBD L70V, 0.167 ± 0.082 µM; with IRF4 DBD T95A, 0.186 ± 0.082 µM; in the data set with IRF4 DBD D117A it was 0.301 ± 0.087 µM.

Source of the values: paper doi:10.1101/2025.03.12.642038, “Structural, biophysical and biological analysis and characterisation of IRF4 DNA-binding domain mutations associated with multiple myeloma”.
